{
  "source": "patent US10010616B2",
  "about": "“Immunogenic compositions and reagents for preparing” (PURDUE RESEARCH FOUNDATION, priority 2011, dated 2018)",
  "key": {"[1]": {"test": "Adsorption isotherm on aluminum hydroxide adjuvant", "format": "binding", "details": "Rehydragel HPA aluminum hydroxide 20-26 μg/mL, 4° C., micro BCA assay", "method": "The phosphorus containing groups described herein bind adjuvants. Compounds containing a phosphorus containing group and a UV chromophore are prepared and quantitative binding data are obtained as adsorption isotherms. Briefly, Rehydragel HPA aluminum hydroxide was suspended (113 μg/mL) in buffer, and varying concentrations of each of compounds E, F, G, and H are added. The suspensions are allowed to equilibrate, and the concentration of each compound in solution at equilibrium is measured. The amount of compound adsorbed (weight/weight) is plotted against the concentration in solution to generate the adsorption isotherm. Adsorption capacity and adsorptive coefficient are calculated for each compound by double reciprocal analysis; the results are summarized in the following table.\nCompound B is coupled to egg white lysozyme. […] After centrifugation, the protein concentration in the supernatant is measured by a standard micro bicinchoninic acid protein assay procedure. […]\nAdsorption of Compound H (Egg white Lysozyme/Compound B conjugate) by Aluminum Hydroxide. […] The supernatant was analyzed in triplicate for compound H concentration by the micro bicinchoninic acid (BCA) assay. The amount of compound H adsorbed was determined by subtracting the amount remaining in the supernatant from the amount initially present. […]"}, "Mice": {"system": "Mice", "test": "Anti-lysozyme antibody response in mice, conjugated vs unconjugated lysozyme", "format": "in vivo", "details": "10 μg dose, FIG. 2", "method": "Compound B-Lysozyme-P2 is prepared in a similar manner using a greater excess of conjugating agent compound B. To determine the magnitude of immunogenic enhancement for the linker-modified protein, a dose response is evaluated comparing a range of doses of compound B-Lysozyme-P2 and AH, to a range of doses of unmodified hen egg lysozyme and AH, according to the following table:\nMice are injected on day 0 and day 21. Blood is collected on day 21 and on day 35. Serum anti-lysozyme IgG and anti-lysozyme IgG subclasses are measured by ELISA assay.\nDose response comparison of conjugated and unconjugated lysozyme immunological response. […] preparations are investigated: (A), lysozyme alone (10 μg dose); (B), lysozyme (10 μg dose)+AH; (C), lysozyme-P2 (2 conjugate load, 10 μg dose)+AH; (D) lysozyme (1 μg dose)+AH; (E), lysozyme-P2 (1 μg dose)+AH."}, "[2]": {"details": "reported, Hem et al., Vaccine 1995; cited from earlier work"}},
  "data": [
    {"substance": "lysozyme: egg white lysozyme (16 kDa MW), unmodified", "values": [
      {"measurement": "Affinity for aluminum hydroxide (in words)", "setting": "[1]", "value": "poor electrostatic binding with aluminum hydroxide"},
      {"measurement": "anti-lysozyme antibody production", "setting": "Mice", "value": "does not show a significant induction of antibody response"},
      {"measurement": "Complexation by aluminum hydroxide (in words)", "setting": "[2]", "value": "negligibly complexed"}
    ]}
  ]
}
